Results as given in patent publication US20250002610A1 (Genmab, published 2025).

T1: human FAPα (Fibroblast activation protein alpha), cell surface expressed (human, UniProt Q12884 1-760)
T1 construct: Endogenous on human lung fibroblasts and CAFs
T1 sequence: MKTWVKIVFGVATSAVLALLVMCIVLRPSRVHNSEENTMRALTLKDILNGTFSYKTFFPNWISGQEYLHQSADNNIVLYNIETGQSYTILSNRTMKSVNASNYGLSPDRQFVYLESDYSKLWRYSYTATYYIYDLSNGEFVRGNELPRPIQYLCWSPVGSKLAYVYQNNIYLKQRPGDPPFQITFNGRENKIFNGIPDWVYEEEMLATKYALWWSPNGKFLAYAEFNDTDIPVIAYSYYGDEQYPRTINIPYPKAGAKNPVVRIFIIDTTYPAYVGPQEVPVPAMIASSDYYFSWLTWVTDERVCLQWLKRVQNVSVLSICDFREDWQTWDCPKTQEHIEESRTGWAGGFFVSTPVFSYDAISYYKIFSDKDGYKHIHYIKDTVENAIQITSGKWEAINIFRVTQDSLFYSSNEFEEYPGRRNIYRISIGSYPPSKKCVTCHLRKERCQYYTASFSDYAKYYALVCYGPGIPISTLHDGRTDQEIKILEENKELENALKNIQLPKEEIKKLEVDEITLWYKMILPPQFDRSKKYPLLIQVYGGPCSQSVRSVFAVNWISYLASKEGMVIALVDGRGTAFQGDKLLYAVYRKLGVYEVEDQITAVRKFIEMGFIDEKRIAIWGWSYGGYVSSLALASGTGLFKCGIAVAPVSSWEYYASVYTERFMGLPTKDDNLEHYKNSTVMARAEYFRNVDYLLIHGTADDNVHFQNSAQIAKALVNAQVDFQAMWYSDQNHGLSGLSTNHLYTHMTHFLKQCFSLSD

B1: BisG1-FAPα-FERL/b12-FERR (bispecific antibody, human IgG1, kappa)
heavy 1: EVQLLESGGGLVQPGGSPRLSCEASGFTFSSYALSWVRQAPGKGLEWVSAISGSGGGRYYADSVKGRFTISRDNSKNTLFLQMNSLRAEDTAVYYCAKEGYSSSGTYWDHWGQGTLVTVSSASTKGPSVFPLAPSSKSTSGGTAALGCLVKDYFPEPVTVSWNSGALTSGVHTFPAVLQSSGLYSLSSVVTVPSSSLGTQTYICNVNHKPSNTKVDKRVEPKSCDKTHTCPPCPAPEFERGPSVFLFPPKPKDTLMISRTPEVTCVVVDVSHEDPEVKFNWYVDGVEVHNAKTKPREEQYNSTYRVVSVLTVLHQDWLNGKEYKCKVSNKALPAPIEKTISKAKGQPREPQVYTLPPSREEMTKNQVSLTCLVKGFYPSDIAVEWESNGQPENNYKTTPPVLDSDGSFLLYSKLTVDKSRWQQGNVFSCSVMHEALHNHYTQKSLSLSPG
light 1: AIQMTQSPSSVSASVGDRVTITCRASQGVSSWLAWYQQKPGRAPKLLIYVASTLQSGVPSRFSGSGSGTDFTLTINSLQPEDFATYYCQQANSFPPTFGQGTRLEMKRTVAAPSVFIFPPSDEQLKSGTASVVCLLNNFYPREAKVQWKVDNALQSGNSQESVTEQDSKDSTYSLSSTLTLSKADYEKHKVYACEVTHQGLSSPVTKSFNRGEC
heavy 2: QVQLVQSGAEVKKPGASVKVSCQASGYRFSNFVIHWVRQAPGQRFEWMGWINPYNGNKEFSAKFQDRVTFTADTSANTAYMELRSLRSADTAVYYCARVGPYSWDDSPQDNYYMDVWGKGTTVIVSSASTKGPSVFPLAPSSKSTSGGTAALGCLVKDYFPEPVTVSWNSGALTSGVHTFPAVLQSSGLYSLSSVVTVPSSSLGTQTYICNVNHKPSNTKVDKRVEPKSCDKTHTCPPCPAPEFERGPSVFLFPPKPKDTLMISRTPEVTCVVVDVSHEDPEVKFNWYVDGVEVHNAKTKPREEQYNSTYRVVSVLTVLHQDWLNGKEYKCKVSNKALPAPIEKTISKAKGQPREPQVYTLPPSREEMTKNQVSLTCLVKGFYPSDIAVEWESNGQPENNYKTTPPVLDSDGSFFLYSRLTVDKSRWQQGNVFSCSVMHEALHNHYTQKSLSLSPG
light 2: EIVLTQSPGTLSLSPGERATFSCRSSHSIRSRRVAWYQHKPGQAPRLVIHGVSNRASGISDRFSGSGSGTDFTLTITRVEPEDFALYYCQVYGASSYTFGQGTKLERKRTVAAPSVFIFPPSDEQLKSGTASVVCLLNNFYPREAKVQWKVDNALQSGNSQESVTEQDSKDSTYSLSSTLTLSKADYEKHKVYACEVTHQGLSSPVTKSFNRGEC
B2: BisG1-FAPα-FEAL/b12-FEAR (bispecific antibody, human IgG1, kappa)
heavy 1: EVQLLESGGGLVQPGGSPRLSCEASGFTFSSYALSWVRQAPGKGLEWVSAISGSGGGRYYADSVKGRFTISRDNSKNTLFLQMNSLRAEDTAVYYCAKEGYSSSGTYWDHWGQGTLVTVSSASTKGPSVFPLAPSSKSTSGGTAALGCLVKDYFPEPVTVSWNSGALTSGVHTFPAVLQSSGLYSLSSVVTVPSSSLGTQTYICNVNHKPSNTKVDKRVEPKSCDKTHTCPPCPAPEFEGGPSVFLFPPKPKDTLMISRTPEVTCVVVAVSHEDPEVKFNWYVDGVEVHNAKTKPREEQYNSTYRVVSVLTVLHQDWLNGKEYKCKVSNKALPAPIEKTISKAKGQPREPQVYTLPPSREEMTKNQVSLTCLVKGFYPSDIAVEWESNGQPENNYKTTPPVLDSDGSFLLYSKLTVDKSRWQQGNVFSCSVMHEALHNHYTQKSLSLSPG
light 1: AIQMTQSPSSVSASVGDRVTITCRASQGVSSWLAWYQQKPGRAPKLLIYVASTLQSGVPSRFSGSGSGTDFTLTINSLQPEDFATYYCQQANSFPPTFGQGTRLEMKRTVAAPSVFIFPPSDEQLKSGTASVVCLLNNFYPREAKVQWKVDNALQSGNSQESVTEQDSKDSTYSLSSTLTLSKADYEKHKVYACEVTHQGLSSPVTKSFNRGEC
heavy 2: QVQLVQSGAEVKKPGASVKVSCQASGYRFSNFVIHWVRQAPGQRFEWMGWINPYNGNKEFSAKFQDRVTFTADTSANTAYMELRSLRSADTAVYYCARVGPYSWDDSPQDNYYMDVWGKGTTVIVSSASTKGPSVFPLAPSSKSTSGGTAALGCLVKDYFPEPVTVSWNSGALTSGVHTFPAVLQSSGLYSLSSVVTVPSSSLGTQTYICNVNHKPSNTKVDKRVEPKSCDKTHTCPPCPAPEFEGGPSVFLFPPKPKDTLMISRTPEVTCVVVAVSHEDPEVKFNWYVDGVEVHNAKTKPREEQYNSTYRVVSVLTVLHQDWLNGKEYKCKVSNKALPAPIEKTISKAKGQPREPQVYTLPPSREEMTKNQVSLTCLVKGFYPSDIAVEWESNGQPENNYKTTPPVLDSDGSFFLYSRLTVDKSRWQQGNVFSCSVMHEALHNHYTQKSLSLSPG
light 2: EIVLTQSPGTLSLSPGERATFSCRSSHSIRSRRVAWYQHKPGQAPRLVIHGVSNRASGISDRFSGSGSGTDFTLTITRVEPEDFALYYCQVYGASSYTFGQGTKLERKRTVAAPSVFIFPPSDEQLKSGTASVVCLLNNFYPREAKVQWKVDNALQSGNSQESVTEQDSKDSTYSLSSTLTLSKADYEKHKVYACEVTHQGLSSPVTKSFNRGEC
notes: Fab-arm exchange of IgG1-FAPα-FEAL and IgG1-b12-FEAR

What was measured:
[1] = target: T1, human FAPα (Fibroblast activation …); test: flow cytometry, human lung fibroblasts, average ± SEM
Experimental: Binding of bispecific or monoclonal antibodies carrying the anti-FAPα arm derived from IgG1-FAPα-FERL (BisG1-FAPα-FERL/DR4-FERR, BisG1-FAPα-FERL/b12-FERR, and IgG1-FAPα-FERL) to cell surface expressed human FAPα was analyzed by flow cytometry using human lung fibroblasts and CAFs, which endogenously express FAPα. BisG1-b12-FERL/b12-FERR was used as negative control.
Human lung fibroblasts and CAFs (50,000 cells/well) were seeded in 96-Well round bottom plates (Greiner Bio-one, Cat #650101). Antibody dilutions were prepared using fluorescence-activated cell sorting (FACS) buffer, consisting of phosphate buffer saline (PBS, Lonza, Cat #BE17-517Q)+1% Bovine Serum Albumin (BSA, Roche, Cat #10735086001)+0.02% Sodium Azide (Bio-World, Cat #41920044-3). Plates were centrifuged, supernatant was removed, cells were resuspended in 50 μL of human Fc Block (BD, Cat #564220, diluted 1:100 in FACS buffer) and 50 μL of viability stain TO-PRO-3 Iodide (Thermo Fisher, Cat #T3605, diluted 1: 25,000 in FACS buffer), and incubated for 15 min at 4° C. Plates were washed three times with FACS buffer. Plates were centrifuged, supernatant was removed, cells were resuspended in 50 μL of antibody dilutions (concentration range 90-0.0005 μg/mL, three-fold dilution steps using FACS buffer) of BisG1-FAPα-FERL/DR4-FERR, BisG1-FAPα-FERL/b12-FERR, BisG1-b12-FERL/b12-FERR (top six concentrations only for CAFs culture) or IgG1-FAPα-FERL (top four concentrations only for CAFs culture) and incubated for 30 min at 4° C. Cells were washed three times with FACS buffer and resuspended in 50 μL of Fluorescein isothiocyanate (FITC)-labeled polyclonal antibody goat anti-mouse IgG1 (Jackson Immuno Research, Cat #109-096-097, diluted 1:100 in FACS buffer). […] Antibody binding to viable cells (TO-PRO-3 negative) was analyzed by flow cytometry on a FACSCelesta™ (BD biosciences) and data were processed using FlowJo_v10.8.1 (FlowJo LLC). Geomean fluorescence intensity, gMFI, was determined and visualized using GraphPad Prism.

[2] = target: T1, human FAPα (Fibroblast activation …); test: flow cytometry, Expi293F cells expressing human FAPα, n = 3
Experimental: Binding of BisG1-FAPα-FERL/DR4-FERR, BisG1-FAPα-FEAL/b12-FEAR and IgG1-FAPα-FERL to FAPα of species commonly used for nonclinical toxicology studies was assessed by flow cytometry using Expi293F cells transiently expressing FAPα from different animal species. IgG1-b12 was included as negative control.
Expi293F cells expressing recombinant FAPα from various species (human, cynomolgus monkey, dog, pig, rat or mouse) were seeded (20,000 cells/well) in 96-Well round bottom plates (Greiner Bio-one, Cat #650101). Antibody dilutions were prepared using FACS buffer, consisting of PBS (Capricorn Scientific, Cat #PBS-10XA, diluted to 1×PBS in distilled water)+1% BSA (Roche, Cat #10735086001)+0.02% Sodium Azide (Bio-World, Cat #41920044-3). Plates were centrifuged, supernatant was removed, and cells were resuspended in 100 μL of antibody dilutions (concentration range 30-0.00017 μg/mL with three-fold serial dilutions using FACS buffer) of BisG1-FAPα-FERL/DR4-FERR, BisG1-FAPα-FEAL/b12-FEAR, IgG1-FAPα-FERL and IgG1-b12 and incubated for 30 min at 4° C. […] After 30 min incubation at 4° C., cells were washed with FACS buffer and resuspended in FACS buffer supplemented with TO-PRO-3 Iodide viability marker (Invitrogen, Cat #T3605, diluted 1:4,000). Antibody binding to viable cells (gMFI of PE on TO-PRO-3 negative cells) was analyzed by flow cytometry on a FACS Celesta and FACS_Diva software (first two experiments) or iQue® 3 and FlowJo software (last experiment). gMFI was determined and visualized using GraphPad Prism. Binding curves were analyzed using nonlinear regression analysis. The concentration (pg/mL) at which 50% of the maximal effect was observed (EC₅₀) was derived from the fitted curves.

Binder | EC50 [1] | EC50 [2]
B1 | 0.041 µg/mL | 
B2 |  | 0.61 µg/mL
